Measurements taken from article PMC6774396 (Frontiers in Immunology, 2019).

Experiments:
[1] = system: THP-1 cells over TNF-α-activated HUVEC; experiment: L-selectin-GFP/RFP clustering in mid-TEM under flow, FLIM/FRET; assay type: cell-based, human; conditions: 15 min perfusion at 1.5 dyn/cm^2, fixed in mid-TEM; Top = non-transmigrated uropods, Base = transmigrated pseudopods; at least 45 cells, 3 experiments; no TAPI-0
Procedure: (A) Line scanning confocal microscopic image of THP-1 cells, stably expressing GFP, captured in mid-TEM—following 15 min of perfusion over TNF-α-activated HUVEC monolayers. […] “Top” and “Base,” respectively, represent the apical and basolateral aspect of the endothelium (x63 objective lens, Leica SP5). Scale bar = 24 μm. (B,C) THP-1 cells expressing WT, SSAA, or SSDD L-selectin-GFP/RFP were perfused over TNF-α-activated HUVEC and fixed after 15 min of perfusion. […] Lifetime images taken of at least 45 cells and analyzed over 3 independent experiments was quantified and expressed as FRET efficiency. Images representative of three independent experiments, where at least 45 cells of each group was analyzed at two optical sections, Top and Base, as indicated in the cartoon of a yellow monocyte captured in mid-TEM crossing a red endothelium. Individual GFP channel and lifetime images are provided for each cell line. The lifetime of fluorescence is expressed in a pseudocolour scale from red (low lifetime with a very high probability of interaction) to blue (high lifetime with a very low probability of interaction). Statistics: unpaired student t-test ***p ≤ 0.001.
Cells expressing WT L-selectin-GFP/RFP were treated for 30 min with 10 μM TAPI-0 and subsequently perfused over TNF-activated HUVEC monolayers for 15 min prior to fixation and analysis for FRET by FLIM (see Materials and Methods for more detail). […] (B) Images representative of three independent experiments, where at least 45 cells of each group were analyzed at two optical sections–non-transmigrated uropods (Top) and transmigrated pseudopods (Base). GFP fluorescence channel and lifetime images are provided for each cell line. The lifetime of fluorescence is expressed in a pseudocolour scale from red (low lifetime with a very high probability of interaction) to blue (high lifetime with a very low probability of interaction). […]
FLIM measurement of FRET was performed with a multiphoton microscope system as described previously ([8], [23]). […] Fluorescence lifetime imaging capability was provided by time-correlated, single-photon counting electronics (SPC 700; Becker & Hickl). […] Data were analyzed as previously described ([65]). The FRET efficiency is related to the molecular separation of donor and acceptor and the fluorescence lifetime of the interacting fraction by: […]
where ηFRET is the FRET efficiency, R0 is the Förster radius, r is the molecular separation, τFRET is the lifetime of the interacting fraction and τd is the lifetime of the donor in the absence of an acceptor. The donor- only control is used as the reference against which all of other lifetimes are calculated in each experiment. τFRET and τd can also be taken to be the lifetime of the interacting fraction and non-interacting fraction, respectively. […]

[2] = system: THP-1 cells on immobilized biglycan; conditions: isolated THP-1 cells, L-selectin-GFP/RFP; cited from earlier work
Text: This figure pieces together data from our recently published work ([8], [23]) with our data from this study. (A,B) In cells expressing WT L-selectin, clustering is only witnessed within pseudopods of transmigrating cells. […] Moesin-driven clustering is a pre-requisite for L-selectin shedding, and so the balance of L-select ...

B1: WT: wild-type human L-selectin, C-terminally tagged with GFP or RFP, expressed in THP-1 cells (protein)
chain: WTYHYSEKPMNWQRARRFCRDNYTDLVAIQNKAEIEYLEKTLPFSRSYYWIGIRKIGGIWTWVGTNKSLTEEAENWGDGEPNNKKNKEDCVEIYIKRNKDAGKWNDDACHKLKAALCYTASCQPWSCSGHGECVEIINNYTCNCDVGYYGPQCQFVIQCEPLEAPELGTMDCTHPLGNFSFSSQCAFSCSEGTNLTGIEETTCGPFGNWSSPEPTCQVIQCEPLSAPDLGIMNCSHPLASFSFTSACTFICSEGTELIGKKKTICESSGIWSNPSPICQKLDKSFSMIKEGDYNPLFIPVAVMVTAFSGLAFIIWLARRLKKGKKSKRSMNDPY
modifications: left off: eGFP (donor copy) or mCherry (acceptor copy, called RFP), C-terminal, kept
- subcellular distribution of L-selectin clustering during TEM (FLIM/FRET) [1]: clustered exclusively within transmigrated pseudopods
- clustering on immobilized biglycan [2]: can cluster when seeded onto immobilized biglycan

B2: SSAA: L-selectin with Ser^364 and Ser^367 both mutated to alanines (protein)
chain: WTYHYSEKPMNWQRARRFCRDNYTDLVAIQNKAEIEYLEKTLPFSRSYYWIGIRKIGGIWTWVGTNKSLTEEAENWGDGEPNNKKNKEDCVEIYIKRNKDAGKWNDDACHKLKAALCYTASCQPWSCSGHGECVEIINNYTCNCDVGYYGPQCQFVIQCEPLEAPELGTMDCTHPLGNFSFSSQCAFSCSEGTNLTGIEETTCGPFGNWSSPEPTCQVIQCEPLSAPDLGIMNCSHPLASFSFTSACTFICSEGTELIGKKKTICESSGIWSNPSPICQKLDKSFSMIKEGDYNPLFIPVAVMVTAFSGLAFIIWLARRLKKGKKAKRAMNDPY
modifications: left off: eGFP (donor copy) or mCherry (acceptor copy, called RFP), C-terminal, kept
- subcellular distribution of L-selectin clustering during TEM (FLIM/FRET) [1]: phenocopied the subcellular distribution of WT L-selectin
